Values of other authors in US20240325609A1, “POLYPEPTIDE MONOLITHS” (Trustees of Tufts College, priority 2015, published 2024).

Conditions: room temperature for 14 days, not encapsulated

HRP not encapsulated in silk: free horse radish peroxidase enzyme
shelf stability of HRP: not shelf-stable
